Reference: patent US20160340443A1

Key:
[1] = biological target: soluble single-chain FcRn (human) (UniProt P55899); test: SPR (BIACORE X), scFcRn amine-coupled to CM5 chip, antibody as analyte 25-400 nM, pH 6.0, two-state reaction model, Run 3
[2] = biological target: soluble single-chain FcRn (human) (UniProt P55899); test: SPR (BIACORE X), scFcRn amine-coupled to CM5 chip, pH 6.0, two-state reaction model, mean of three runs
[3] = biological target: soluble single-chain FcRn (human) (UniProt P55899); test: SPR (BIACORE X), scFcRn amine-coupled to CM5 chip, antibody as analyte 25-400 nM, pH 6.0, two-state reaction model, Run 2
[4] = biological target: soluble single-chain FcRn (human) (UniProt P55899); test: SPR (BIACORE X), scFcRn amine-coupled to CM5 chip, antibody as analyte 25-400 nM, pH 6.0, two-state reaction model, Run 1

Kd [1]: 15.8 nM
Kd [2]: 16.3 nM
Kd [3]: 17.9 nM
Kd [4]: 15 nM
Substance: epratuzumab (antibody)
